Results as given in the supplement of paper PMC5998384.

Experiments:
HeLa Kyoto [1] = assay: melting temperature (median over replicates), in situ; higher = more thermally stable
HeLa Kyoto [2] = assay: solubility change mitosis vs G1/S (difference of NP-40 vs SDS log2 ratios) (log2 ratio difference); higher = more soluble in mitosis
HeLa Kyoto [3] = assay: thermal stability score vs G1/S (z-score of summed log2 fold changes over temperatures); higher = more thermally stable than in G1/S
HeLa Kyoto [4] = assay: solubility in G1/S (NP-40 vs SDS abundance) (log2 ratio); higher = more soluble; settings: cell cycle stage: G1/S
[5] = cell cycle stage: early G1 (4.5 h after nocodazole release)
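Wherever melting temperature (median over replicates), in situ is given: HeLa Kyoto cells synchronized by double thymidine or nocodazole block, proteins quantified by TMT10plex mass spectrometry, three independent biological replicates.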
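Wherever solubility change mitosis vs G1/S (difference of NP-40 vs SDS log2 ratios) is given: synchronized HeLa Kyoto cells (double thymidine block for G1/S, nocodazole release for mitosis), protein amounts in NP-40 versus SDS lysates quantified by mass spectrometry, three biological replicates.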
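Wherever solubility in G1/S (NP-40 vs SDS abundance) is given: HeLa Kyoto cells arrested at G1/S by double thymidine block, proteins quantified by TMT10plex mass spectrometry in mild NP-40 versus SDS extracts, three biological replicates.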
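Wherever thermal stability score vs G1/S (z-score of summed log2 fold changes over temperatures) is given: synchronized HeLa Kyoto cells, proteins quantified by TMT10plex mass spectrometry, three biological replicates, mitosis taken 0.5 h after nocodazole release, G1/S directly after double thymidine block.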

Row | Sequence | melting temperature (HeLa Kyoto [1]; cell cycle stage: G1/S) | melting temperature (HeLa Kyoto [1]; cell cycle stage: mitosis) | solubility change mitosis (log2) (HeLa Kyoto [2]) | thermal stability score (HeLa Kyoto [3]; [5]) | thermal stability score (HeLa Kyoto [3]; cell cycle stage: mitosis) | solubility in G1/S (log2) (HeLa Kyoto [4])
1 | MENEPDHENVEQSLCAKTSEEELNKSFNLEASLSKFSYIDMDKELEFKNDLIDDKEFDIPQVDTPPTLESILNETDDEDESFILEDPTLLNIDTIDSHSYDTSSVASSDSGDRTNLKRKKKLPDSFSLHGSVMRHSLLKGISAQIVSAADKVDAGLPTAIAVSSLIAVGTSHGLALIFGKDQNQALRLCLGSTSVGGQYGAISALSINNDCSRLLCGFAKGQITMWDLASGKLLRSITDAHPPGTAILHIKFTDDPTLAICNDSGGSVFELTFKRVMGVRTCESRCLFSGSKGEVCCIEPLHSKPELKDHPITQFSLLAMASLTKILVIGLKPSLKVWMTFPYGRMDPSSVPLLAWHFVAVQNYVNPMLAFCRGDVVHFLLVKRDESGAIHVTKQKHLHLYYDLINFTWINSRTVVLLDSVEKLHVIDRQTQEELETVEISEVQLVYNSSHFKSLATGGNVSQALALVGEKACYQSISSYGGQIFYLGTKSVYVMMLRSWRERVDHLLKQDCLTEALALAWSFHEGKAKAVVGLSGDASKRKAIVADRMVEILFHYADRALKKCPDQGKIQVMEQHFQDMVPVIVDYCLLLQRKDLLFSQMYDKLSENSVAKGVFLECLEPYILSDKLVGITPQVMKDLIVHFQDKKLMENVEALIVHMDITSLDIQQVVLMCWENRLYDAMIYVYNRGMNEFISPMEKLFRVIAPPLNAGKTLTDEQVVMGNKLLVYISCCLAGRAYPLGDIPEDLVPLVKNQVFEFLIRLHSAEASPEEEIYPYIRTLLHFDTREFLNVLALTFEDFKNDKQAVEYQQRIVDILLKVMVENSDFTPSQVGCLFTFLARQLAKPDNTLFVNRTLFDQVLEFLCSPDDDSRHSERQQVLLELLQAGGIVQFEESRLIRMAEKAEFYQICEFMYEREHQYDKIIDCYLRDPLREEEVFNYIHNILSIPGHSAEEKQSVWQKAMDHIEELVSLKPCKAAELVATHFSGHIETVIKKLQNQVLLFKFLRSLLDPREGIHVNQELLQISPCITEQFIELLCQFNPTQVIETLQVLECYRLEETIQITQKYQLHEVTAYLLEKKGDIHGAFLIMLERLQSKLQEVTHQGENTKEDPSLKDVEDTMVETIALCQRNSHNLNQQQREALWFPLLEAMMAPQKLSSSAIPHLHSEALKSLTMQVLNSMAAFIALPSILQRILQDPVYGKGKLGEIQGLILGMLDTFNYEQTLLETTTSLLNQDLHWSLCNLRASVTRGLNPKQDYCSICLQQYKRRQEMADEIIVFSCGHLYHSFCLQNKECTVEFEGQTRWTCYKCSSSNKVGKLSENSSEIKKGRITPSQVKMSPSYHQSKGDPTAKKGTSEPVLDPQQIQAFDQLCRLYRGSSRLALLTELSQNRSSESYRPFSGSQSAPAFNSIFQNENFQLQLIPPPVTED [VPS8] | 52.2 °C | 50.1 °C | -0.056 | 0.78 | 1.34 | -0.292
2 | MENHKSNNKENITIVDISRKINQLPEAERNLLENGSVYVGLNAALCGLIANSLFRRILNVTKARIAAGLPMAGIPFLTTDLTYRCFVSFPLNTGDLDCETCTITRSGLTGLVIGGLYPVFLAIPVNGGLAARYQSALLPHKGNILSYWIRTSKPVFRKMLFPILLQTMFSAYLGSEQYKLLIKALQLSEPGKEIH [TMEM126A] | 52.8 °C | 52.4 °C | -0.094 | -0.173 | -0.978 | 0.245
3 | MEPEEERIRYSQRLRGTMRRRYEDDGISDDEIEGKRTFDLEEKLHTNKYNANFVTFMEGKDFNVEYIQRGGLRDPLIFKNSDGLGIKMPDPDFTVNDVKMCVGSRRMVDVMDVNTQKGIEMTMAQWTRYYETPEEEREKLYNVISLEFSHTRLENMVQRPSTVDFIDWVDNMWPRHLKESQTESTNAILEMQYPKVQKYCLMSVRGCYTDFHVDFGGTSVWYHIHQGGKVFWLIPPTAHNLELYENWLLSGKQGDIFLGDRVSDCQRIELKQGYTFVIPSGWIHAVYTPTDTLVFGGNFLHSFNIPMQLKIYNIEDRTRVPNKFRYPFYYEMCWYVLERYVYCITNRSHLTKEFQKESLSMDLELNGLESGNGDEEAVDREPRRLSSRRSVLTSPVANGVNLDYDGLGKTCRSLPSLKKTLAGDSSSDCSRGSHNGQVWDPQCAPRKDRQVHLTHFELEGLRCLVDKLESLPLHKKCVPTGIEDEDALIADVKILLEELANSDPKLALTGVPIVQWPKRDKLKFPTRPKVRVPTIPITKPHTMKPAPRLTPVRPAAASPIVSGARRRRVRCRKCKACVQGECGVCHYCRDMKKFGGPGRMKQSCVLRQCLAPRLPHSVTCSLCGEVDQNEETQDFEKKLMECCICNEIVHPGCLQMDGEGLLNEELPNCWECPKCYQEDSSEKAQKRKMEESDEEAVQAKVLRPLRSCDEPLTPPPHSPTSMLQLIHDPVSPRGMVTRSSPGAGPSDHHSASRDERFKRRQLLRLQATERTMVREKENNPSGKKELSEVEKAKIRGSYLTVTLQRPTKELHGTSIVPKLQAITASSANLRHSPRVLVQHCPARTPQRGDEEGLGGEEEEEEEEEEEDDSAEEGGAARLNGRGSWAQDGDESWMQREVWMSVFRYLSRRELCECMRVCKTWYKWCCDKRLWTKIDLSRCKAIVPQALSGIIKRQPVSLDLSWTNISKKQLTWLVNRLPGLKDLLLAGCSWSAVSALSTSSCPLLRTLDLRWAVGIKDPQIRDLLTPPADKPGQDNRSKLRNMTDFRLAGLDITDATLRLIIRHMPLLSRLDLSHCSHLTDQSSNLLTAVGSSTRYSLTELNMAGCNKLTDQTLIYLRRIANVTLIDLRGCKQITRKACEHFISDLSINSLYCLSDEKLIQKIS [KDM2A] | 52.3 °C | 50.5 °C | 0.642 | 0.0512 | -0.325 | -1.07
4 | MEPPYSLTAHYDEFQEVKYVSRCGAGGARGASLPPGFPLGAARSATGARSGLPRWNRREVCLLSGLVFAAGLCAILAAMLALKYLGPVAAGGGACPEGCPERKAFARAARFLAANLDASIDPCQDFYSFACGGWLRRHAIPDDKLTYGTIAAIGEQNEERLRRLLARPGGGPGGAAQRKVRAFFRSCLDMREIERLGPRPMLEVIEDCGGWDLGGAEERPGVAARWDLNRLLYKAQGVYSAAALFSLTVSLDDRNSSRYVIRIDQDGLTLPERTLYLAQDEDSEKILAAYRVFMERVLSLLGADAVEQKAQEILQVEQQLANITVSEHDDLRRDVSSMYNKVTLGQLQKITPHLRWKWLLDQIFQEDFSEEEEVVLLATDYMQQVSQLIRSTPHRVLHNYLVWRVVVVLSEHLSPPFREALHELAQEMEGSDKPQELARVCLGQANRHFGMALGALFVHEHFSAASKAKVQQLVEDIKYILGQRLEELDWMDAETRAAARAKLQYMMVMVGYPDFLLKPDAVDKEYEFEVHEKTYFKNILNSIRFSIQLSVKKIRQEVDKSTWLLPPQALNAYYLPNKNQMVFPAGILQPTLYDPDFPQSLNYGGIGTIIGHELTHGYDDWGGQYDRSGNLLHWWTEASYSRFLRKAECIVRLYDNFTVYNQRVNGKHTLGENIADMGGLKLAYHAYQKWVREHGPEHPLPRLKYTHDQLFFIAFAQNWCIKRRSQSIYLQVLTDKHAPEHYRVLGSVSQFEEFGRAFHCPKDSPMNPAHKCSVW [ECEL1] | 52.9 °C | 52.1 °C | -0.124 | 0.162 | 2.03 | -0.0684
5 | MEPRAVAEAVETGEEDVIMEALRSYNQEHSQSFTFDDAQQEDRKRLAELLVSVLEQGLPPSHRVIWLQSVRILSRDRNCLDPFTSRQSLQALACYADISVSEGSVPESADMDVVLESLKCLCNLVLSSPVAQMLAAEARLVVKLTERVGLYRERSFPHDVQFFDLRLLFLLTALRTDVRQQLFQELKGVRLLTDTLELTLGVTPEGNPPPTLLPSQETERAMEILKVLFNITLDSIKGEVDEEDAALYRHLGTLLRHCVMIATAGDRTEEFHGHAVNLLGNLPLKCLDVLLTLEPHGDSTEFMGVNMDVIRALLIFLEKRLHKTHRLKESVAPVLSVLTECARMHRPARKFLKAQVLPPLRDVRTRPEVGEMLRNKLVRLMTHLDTDVKRVAAEFLFVLCSESVPRFIKYTGYGNAAGLLAARGLMAGGRPEGQYSEDEDTDTDEYKEAKASINPVTGRVEEKPPNPMEGMTEEQKEHEAMKLVTMFDKLSRNRVIQPMGMSPRGHLTSLQDAMCETMEQQLSSDPDSDPD [RIC8A] | 51.6 °C | 49.6 °C | 0.342 | 1.87 | -0.505 | -0.322
6 | MEQEPQNGEPAEIKIIREAYKKAFLFVNKGLNTDELGQKEEAKNYYKQGIGHLLRGISISSKESEHTGPGWESARQMQQKMKETLQNVRTRLEILEKGLATSLQNDLQEVPKLYPEFPPKDMCEKLPEPQSFSSAPQHAEVNGNTSTPSAGAVAAPASLSLPSQSCPAEAPPAYTPQAAEGHYTVSYGTDSGEFSSVGEEFYRNHSQPPPLETLGLDADELILIPNGVQIFFVNPAGEVSAPSYPGYLRIVRFLDNSLDTVLNRPPGFLQVCDWLYPLVPDRSPVLKCTAGAYMFPDTMLQAAGCFVGVVLSSELPEDDRELFEDLLRQMSDLRLQANWNRAEEENEFQIPGRTRPSSDQLKEASGTDVKQLDQGNKDVRHKGKRGKRAKDTSSEEVNLSHIVPCEPVPEEKPKELPEWSEKVAHNILSGASWVSWGLVKGAEITGKAIQKGASKLRERIQPEEKPVEVSPAVTKGLYIAKQATGGAAKVSQFLVDGVCTVANCVGKELAPHVKKHGSKLVPESLKKDKDGKSPLDGAMVVAASSVQGFSTVWQGLECAAKCIVNNVSAETVQTVRYKYGYNAGEATHHAVDSAVNVGVTAYNINNIGIKAMVKKTATQTGHTLLEDYQIVDNSQRENQEGAANVNVRGEKDEQTKEVKEAKKKDK [SPG20] | 49.8 °C | 50.4 °C | -0.0384 | 1.64 | 1.92 | 0.205
7 | MEQLSDEEIDHGAEEDSDKEDQDLDKMFGAWLGELDKLTQSLDSDKPMEPVKRSPLRQETNMANFSYRFSIYNLNEALNQGETVDLDALMADLCSIEQELSSIGSGNSKRQITETKATQKLPVSRHTLKHGTLKGLSSSSNRIAKPSHASYSLDDVTAQLEQASLSMDEAAQQSVLEDTKPLVTNQHRRTASAGTVSDAEVHSISNSSHSSITSAASSMDSLDIDKVTRPQELDLTHQGQPITEEEQAAKLKAEKIRVALEKIKEAQVKKLVIRVHMSDDSSKTMMVDERQTVRQVLDNLMDKSHCGYSLDWSLVETVSELQMERIFEDHENLVENLLNWTRDSQNKLIFMERIEKYALFKNPQNYLLGKKETAEMADRNKEVLLEECFCGSSVTVPEIEGVLWLKDDGKKSWKKRYFLLRASGIYYVPKGKAKVSRDLVCFLQLDHVNVYYGQDYRNKYKAPTDYCLVLKHPQIQKKSQYIKYLCCDDVRTLHQWVNGIRIAKYGKQLYMNYQEALKRTESAYDWTSLSSSSIKSGSSSSSIPESQSNHSNQSDSGVSDTQPAGHVRSQSIVSSVFSEAWKRGTQLEESSKARMESMNRPYTSLVPPLSPQPKIVTPYTASQPSPPLPPPPPPPPPPPPPPPPPPPPLPSQSAPSAGSAAPMFVKYSTITRLQNASQHSGALFKPPTPPVMQSQSVKPQILVPPNGVVPPPPPPPPPPTPGSAMAQLKPAPCAPSLPQFSAPPPPLKIHQVQHITQVAPPTPPPPPPIPAPLPPQAPPKPLVTIPAPTSTKTVAPVVTQAAPPTPTPPVPPAKKQPAFPASYIPPSPPTPPVPVPPPTLPKQQSFCAKPPPSPLSPVPSVVKQIASQFPPPPTPPAMESQPLKPVPANVAPQSPPAVKAKPKWQPSSIPVPSPDFPPPPPESSLVFPPPPPSPVPAPPPPPPPTASPTPDKSGSPGKKTSKTSSPGGKKPPPTPQRNSSIKSSSGAEHPEPKRPSVDSLVSKFTPPAESGSPSKETLPPPAAPPKPGKLNLSGVNLPGVLQQGCVSAKAPVLSGRGKDSVVEFPSPPSDSDFPPPPPETELPLPPIEIPAVFSGNTSPKVAVVNPQPQQWSKMSVKKAPPPTRPKRNDSTRLTQAEISEQPTMATVVPQVPTSPKSSLSVQPGFLADLNRTLQRKSITRHGSLSSRMSRAEPTATMDDMALPPPPPELLSDQQKAGYGGSHISGYATLRRGPPPAPPKRDQNTKLSRDW [RAPH1] | 52 °C | 52.3 °C | -0.187 | -1.35 | -0.404 | 0.0855
